± gives the standard deviation.
Assay: protein stability index of a GFP-peptide fusion (GPS, HEK-293T) (PSI 1-6); higher = more stable
Conditions: c terminus: a fixed tail appended
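Further: 24-mer peptide tiles fused after GFP, lentivirally expressed, FACS-sorted into six equal bins by GFP/DsRed ratio, decoded by Illumina sequencing, PSI is the read-weighted mean bin number.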

| Sequence | protein stability index (treatment: DMSO) | protein stability index (treatment: MLN4924 1 uM, 8 h) |
| --- | --- | --- |
| PAPTATVPAPQPPVTKPLFPSAGQ [ZNF207] | 4.82 ± 0.39 | 4.8 ± 0.18 |
| PASYTAPIMSGQGLAGFFASVAMI [SLC29A1] | 2.59 ± 0.58 | 2.44 ± 0.48 |
| PCAGLNCQALDANLDANLAFASFT [TLE6] | 2.98 ± 0.33 | 2.99 ± 0.28 |
| PDDKLTLFCEVSVVQDSVNISGHT [SPOPL] | 2.47 ± 0.52 | 2.81 ± 0.49 |
| PDTQENRRMFSSLFQFSNCSQGQQ [CCDC3] | 3.67 ± 0.19 | 3.51 ± 0.17 |
| PECGEIFAHSSNLLRHQRIHTGER [ZNF263] | 3.88 ± 0.24 | 3.91 ± 0.073 |
| PEGARRGLGVLRALGSRGWEPFDW [FANCE] | 3.05 ± 0.34 | 2.98 ± 0.42 |
| PEIEKADDHLQQPLQNQKILKRTG [ZNF649] | 5.3 ± 0.29 | 5.5 ± 0.24 |
| PEQSLKKTKTSEYPIIFVYYLRKG [SPANXN3] | 2.75 ± 1.8 | 2.59 ± 0.37 |
| PERLHAIKEQLIQEGLLDRCVSFQ [HDAC6] | 2.88 ± 0.11 | 3.18 ± 0.12 |
| PESVEASPVVVEKSNSYPHQLYTS [KMT2E] | 4.34 ± 0.32 | 4.44 ± 0.26 |
| PEVLDRESRDRPSCAPSASIPKLK [PWWP2B] | 5.04 ± 0.21 | 5.25 ± 0.15 |
| PGEEKFENLEGVPSVCSENIHPQV [ZNF263] | 4.96 ± 0.23 | 4.96 ± 0.38 |
| PGFDRGQFHKQIAVMRGQILNLTQ [PI4K2A] | 2.56 ± 0.21 | 2.56 ± 0.28 |
| PGFGCKAVRCASGRCTVRDFIHRH [SDE2] | 2.08 ± 0.43 | 2.14 ± 0.46 |
| PGKDYDADRQCQLTFGPDSRHCPQ [ADAMTS4] | 4.68 ± 0.26 | 4.67 ± 0.24 |
| PGRREGCDICAGKAGCPIVEEPLG [RPS21] | 4.09 ± 0.33 | 4.25 ± 0.072 |
| PGSLLCTVAASDPDTGDNARLTYS [PCDHGC5] | 4.12 ± 0.29 | 4 ± 0.14 |
| PGTLLKTSPSPERSLLLKYARTPT [TRIM14] | 3.27 ± 0.22 | 3.15 ± 0.12 |
| PIEVVTEGLLNTYQELLGLSFEQM [NLN] | 2.13 ± 0.37 | 2.29 ± 0.38 |
| PKDIAKLVPKTHLMSESEWRNLGV [CKS1B] | 2.8 ± 0.32 | 2.85 ± 0.34 |
| PKPSGLEPGPAAYGLKPLTPNSKY [KCTD13] | 4.42 ± 0.23 | 4.22 ± 0.26 |
| PLFSEDVVLKLFLSFSGSDVQNKL [SNX8] | 2.1 ± 0.45 | 2.31 ± 0.39 |

| Sequence | protein stability index (treatment: DMSO) | protein stability index (treatment: MLN4924 1 uM, 8 h) |
| --- | --- | --- |
| PLLLKEILKHTPKEHPDVQLLEDA [NET1] | 3.82 ± 0.41 | 4.06 ± 0.21 |
| PLMQGPRTRPRKPIRCGEVLFAVG [KLHL20] | 2.23 ± 0.33 | 1.92 ± 0.5 |
| PLMVASAQSGERECHIVVLTDDDV [BTBD10] | 3.71 ± 0.32 | 3.92 ± 0.15 |
| PLPFPGPFPAGPLAVAGGPRKTAA [ESRRA] | 4.43 ± 0.17 | 4.25 ± 0.14 |
| PLPHPGAAPWPMAFPYQYPPPPHP [DVL3] | 3.15 ± 0.28 | 3.41 ± 0.13 |
| PLPQIPNLPFWVKEKANSLKNEIQ [SPATS1] | 2.79 ± 0.45 | 3.4 ± 0.3 |
| PLQDFPNSISSDKEATVPCTEILT [MIA2] | 4.55 ± 0.24 | 4.54 ± 0.24 |
| PNAQYWSQFHSVRPQGPQLRQQQH [DNAJC4] | 3.62 ± 0.14 | 3.76 ± 0.29 |
| PNCFRKDPDINMHPFFFALGKILS [FADS1] | 2.1 ± 0.51 | 2.33 ± 0.5 |
| PPELTASRQSFRMAMGNPSEFFVD [DVL3] | 4.17 ± 0.21 | 3.83 ± 0.21 |
| PPGPKGDQGDEGKEGRPGIPGLPG [SCARA5] | 5.69 ± 0.15 | 5.36 ± 0.41 |
| PPPASQPVVKALFGASAAGGLSPV [CDC25A] | 4.08 ± 0.14 | 4.17 ± 0.21 |
| PPPPMQPTVPSAATSQPTPSQHSA [CCDC6] | 5.23 ± 0.12 | 5.47 ± 0.18 |
| PPSRGHGYRDYGHSRRHESYSRGY [RBMY1A1] | 3.96 ± 0.07 | 4.01 ± 0.32 |
| PQFTGILQLLQSRTSRKFLACRLT [INTS3] | 2.18 ± 0.41 | 2.16 ± 0.27 |
| PQKLKEVISLEKLNVGNERYVFEA [GAN] | 2.96 ± 0.21 | 2.92 ± 0.41 |
| PQVPPSQPLRPWAGGDVPHKTHQA [DYRK1B] | 4.41 ± 0.32 | 4.63 ± 0.21 |
| PQVPQPPSPAAVPRPPSNPPARGT [TRAF3IP2] | 5.2 ± 0.12 | 5.17 ± 0.2 |
| PQYTIRCRPLQFQPSKSHKKVLKK [ATE1] | 3.6 ± 0.09 | 3.88 ± 0.3 |
| PRDLPKHTPLISKSQSLRSVRRSE [RASAL3] | 5.19 ± 0.27 | 5.43 ± 0.2 |
| PRRESLLRGLCRPLRPLLGFRESD [C6orf223] | 2.36 ± 0.46 | 2.13 ± 0.43 |
| PRRFTFYPCVLATEGFTSGRHYWE [TRIM39] | 2.31 ± 0.51 | 2.19 ± 0.13 |
| PSCRHEVVLDRHGVYGLQRNLLVE [TRIM55] | 2.32 ± 0.36 | 2.3 ± 0.47 |

| Sequence | protein stability index (treatment: DMSO) | protein stability index (treatment: MLN4924 1 uM, 8 h) |
| --- | --- | --- |
| PSLRPRPASSISLPIGHLGCISLL [DMRTC1] | 2.55 ± 0.35 | 2.85 ± 0.43 |
| PSLSTITSTSSSITSSIPDTERLD [DVL3] | 5.23 ± 0.17 | 5.28 ± 0.16 |
| PSNRSFFSEIISSISDVKFSHSGR [PPP2R2B] | 2.73 ± 0.44 | 2.78 ± 0.39 |
| PSSNEEIRLVDDAFGKICHMVSDG [INTS4] | 4.18 ± 0.23 | 4.5 ± 0.2 |
| PSSSSIHNGDMEKILLDAQHESGQ [BNIP3L] | 5.12 ± 0.14 | 5.27 ± 0.096 |
| PTKSHSFRAMCQNGKLVYPSCEEK [CFHR2] | 4.01 ± 0.32 | 4.25 ± 0.34 |
| PTTSFLSISKLSPFSEFFKLRFNR [PWWP2B] | 2.07 ± 0.33 | 2.13 ± 0.36 |
| PVFLHSQMLWELVLLGEPLVVMAP [DENND6A] | 2.81 ± 0.63 | 2.98 ± 0.69 |
| PVHLVDKLPLPIALRSHLKSFSMA [RAB40B] | 2.46 ± 0.2 | 2.27 ± 0.2 |
| PYQVNGVNPAYPESRYTSDYFISY [ETS1] | 2.18 ± 0.18 | 2.27 ± 0.21 |
| PYSTVDNPVYYGPSDFFIGAVIEV [EFHC1] | 2.8 ± 0.48 | 3.13 ± 0.53 |
| QAPGEENLLGEAAGGQDMADSMLM [HDAC6] | 5.36 ± 0.16 | 5.14 ± 0.36 |
| QAYLDDCHRRYSCAHCRAHLANHD [YPEL3] | 2.68 ± 0.43 | 2.45 ± 0.39 |
| QCLVEGCTEKFKTSRDRKDHMVRM [ZNF511] | 3.57 ± 0.27 | 3.95 ± 0.25 |
| QDEEDMFMVVDLLLGGDLRYHLQQ [STK32A] | 2.21 ± 0.18 | 2.1 ± 0.35 |
| QDIDLGAGREVFDYSHRQKEQDVE [NFE2L1] |  | 5.05 ± 0.84 |
| QDSSVTSKRNIKKGAVPRSIPNLA [HDAC6] | 4.17 ± 0.26 | 4.21 ± 0.41 |
| QEAMFNMATLNRTAAGLMHTFNAH [SEPHS2] | 2.44 ± 0.12 | 2.54 ± 0.18 |
| QELANIDPTWIESPKTNGHIENGP [SRPK2] | 4.92 ± 0.32 | 4.63 ± 0.19 |
| QEMQQKLVELSAENEKLHQRVEQL [CEBPD] | 4.84 ± 0.1 | 4.74 ± 0.54 |
| QFAAEYTSKNSSTQDPSQPNSTKN [LCOR] | 5.22 ± 0.15 | 5.36 ± 0.08 |
| QFLLELLSDKSCQSFISWTGDGWE [ETS2] | 1.83 ± 0.38 | 1.85 ± 0.29 |
| QHCRQSLASRIRSNKKMLLLVGGL [KLHL14] | 2.54 ± 0.83 | 2.24 ± 0.43 |

| Sequence | protein stability index (treatment: DMSO) | protein stability index (treatment: MLN4924 1 uM, 8 h) |
| --- | --- | --- |
| QHSHVVRYFSAWAEDDHMLIQNEY [WEE1] | 2.22 ± 0.14 | 2.24 ± 0.12 |
| QIDAVGSKLKMLERKGWLAPSPGV [PKD2L1] | 3 ± 0.45 | 3.17 ± 0.22 |
| QIEKKEKKLHKIQNKAQRQKDLIM [TAF7L] | 3.64 ± 0.32 | 3.85 ± 0.28 |
| QKALYRRLATVHMSRMINKYKRRR [CLPTM1] | 3.7 ± 0.22 | 3.53 ± 0.16 |
| QKFRNQFLSFSMYQSFVQFLQYYY [TMEM120A] | 2.42 ± 0.21 | 2.41 ± 0.17 |
| QLDALPFFVITMIKIVLINSFGAI [SLC29A1] | 2.96 ± 0.54 | 3.31 ± 0.17 |
| QLPFCGPNVIDNFLCDLYPLLKLA [OR4A15] | 2.64 ± 0.66 | 2.47 ± 0.25 |
| QLQLKIIEIEDEAEKWQKEKDRIK [TRIM29] | 3.35 ± 0.24 | 3.6 ± 0.36 |
| QLRKQKKKTGKSSTTALGDKQRKA [ELOA2] | 4.73 ± 0.51 | 4.82 ± 0.39 |
| QQVPMPPGQEAQRVVCGIDSSMIL [NEK8] | 3.39 ± 0.29 | 3.5 ± 0.33 |
| QRAQAEVLQSVRELSRSRKLYGQR [FCHSD1] | 3.76 ± 0.2 | 3.85 ± 0.36 |
| QRDGSKSEDELDQASTPTDVRDID [CCND2] | 5.62 ± 0.16 | 5.62 ± 0.14 |
| QRDLSPTAEDAELSDFEECEETGE [FCHSD1] | 5.55 ± 0.21 | 5.54 ± 0.21 |
| QRFHEICSNLVKTRRRAVGWWKRL [ARL6IP1] | 2.22 ± 0.41 | 2.55 ± 0.62 |
| QSCWAFLPDLCLCRVFWWLGDRDR [FBXO39] | 2.2 ± 0.35 | 2.27 ± 0.36 |
| QSGRHLQTHSNTIVVSLQSKLASM [STX5] | 2.79 ± 0.36 | 2.97 ± 0.28 |
| QSMSQTRELLLDGGYLQRTTYDRR [RSPH3] | 3.85 ± 0.13 | 3.77 ± 0.052 |
| QTTTAYKKTHETLSHAGQKATAAF [TPD52L1] | 4.08 ± 0.34 | 3.98 ± 0.27 |
| QVGTLLFRSRSRLTHLSLSRRASE [CDC25B] | 2.93 ± 0.39 | 3 ± 0.13 |
| QVIHPQEFRRWRDTGVAFELRDSS [DNAAF3] | 3.29 ± 0.36 | 3.31 ± 0.32 |

— the supplement of paper PMC10567573
